This is an account of results in paper PMC10774645, “Characterization and stabilization of GluLm and its application to deglycosylate dietary flavonoids and lignans” (Applied Microbiology and Biotechnology, 2024).

One series has as its target T1, GluLm (Limosilactobacillus mucosae, UniProt A0A508YIL6).
T1 construct: gene bglB; full-length, C-terminal poly-His tag (pLATE31), expressed in E. coli BL21(DE3), GraviTrap purified, 81 kDa
T1 sequence (A0A508YIL6 1-735): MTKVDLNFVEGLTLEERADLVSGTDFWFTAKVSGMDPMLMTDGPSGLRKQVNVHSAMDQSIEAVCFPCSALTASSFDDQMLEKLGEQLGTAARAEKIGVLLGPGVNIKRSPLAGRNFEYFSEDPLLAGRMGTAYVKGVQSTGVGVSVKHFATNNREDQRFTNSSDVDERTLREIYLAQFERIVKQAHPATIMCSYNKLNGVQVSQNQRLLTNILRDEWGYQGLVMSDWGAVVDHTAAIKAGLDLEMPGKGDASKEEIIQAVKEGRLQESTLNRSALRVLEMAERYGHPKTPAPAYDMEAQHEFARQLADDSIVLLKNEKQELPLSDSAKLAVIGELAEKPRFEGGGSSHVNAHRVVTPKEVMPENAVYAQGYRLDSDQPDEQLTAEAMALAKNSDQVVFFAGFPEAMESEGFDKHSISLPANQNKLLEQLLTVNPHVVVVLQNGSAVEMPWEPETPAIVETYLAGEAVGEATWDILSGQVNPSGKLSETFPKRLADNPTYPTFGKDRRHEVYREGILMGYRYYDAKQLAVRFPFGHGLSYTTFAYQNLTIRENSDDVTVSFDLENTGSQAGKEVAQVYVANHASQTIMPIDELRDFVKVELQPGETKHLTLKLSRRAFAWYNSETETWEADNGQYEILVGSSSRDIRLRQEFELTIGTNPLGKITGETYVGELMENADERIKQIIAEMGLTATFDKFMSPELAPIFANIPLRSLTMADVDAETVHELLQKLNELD
In words: inhibition of pNPG hydrolysis, p-nitrophenol release at […] nm. It is filed as biochemical. The following applies: 100000 µM; free enzyme; 1 mmol L^−1 pNPG; 100 mmol L^−1 sodium phosphate pH 6.5; 37°C; 5 min.

Substrate in series [1]: C[C@@H]1O[C@@H](Oc2ccc([N+](=O)[O-])cc2)[C@@H](O)[C@H](O)[C@@H]1O
The series is described as follows: purified protein. To be noted: free enzyme; 0.1 to 10 mmol L^−1 substrate; pH and temperature not restated for kinetics. It is filed as biochemical, Limosilactobacillus mucosae.

Substrate in series [2]: C[C@H]1O[C@@H](Oc2ccc([N+](=O)[O-])cc2)[C@H](O)[C@@H](O)[C@H]1O
The series is described as follows: purified protein. It is filed as biochemical, Limosilactobacillus mucosae. The following applies: free enzyme; 0.1 to 10 mmol L^−1 substrate; pH and temperature not restated for kinetics.

Substrate in series [3]: O=[N+]([O-])c1ccc(O[C@@H]2OC[C@@H](O)[C@H](O)[C@H]2O)cc1
The series is described as follows: purified protein. Type of series: biochemical, Limosilactobacillus mucosae. To be noted: free enzyme; 0.1 to 10 mmol L^−1 substrate; pH and temperature not restated for kinetics.

Substrate in series [4]: O=[N+]([O-])c1ccc(O[C@@H]2O[C@H](CO)[C@@H](O)[C@H](O)[C@H]2O)cc1
In words: purified protein. To be noted: free enzyme; 0.1 to 10 mmol L^−1 substrate; pH and temperature not restated for kinetics. Type of series: biochemical, Limosilactobacillus mucosae.

Substrate in series [5]: O=[N+]([O-])c1ccc(O[C@@H]2O[C@H](CO)[C@H](O)[C@H](O)[C@H]2O)cc1
The series is described as follows: purified protein. Type of series: biochemical, Limosilactobacillus mucosae. To be noted: free enzyme; 0.1 to 10 mmol L^−1 substrate; pH and temperature not restated for kinetics.

Regarding `OC[C@H]1OC(O)[C@H](O)[C@@H](O)[C@@H]1O` (stereo partly drawn) [glucose], on GluLm, the “Relative activity (%)” value turned out to be 48.3 ± 5.7%.

B1: GluLm (Limosilactobacillus mucosae) (protein)
chain: T1 sequence (A0A508YIL6 1-735)
notes: full-length, C-terminal poly-His tag (pLATE31), expressed in E. coli BL21(DE3), GraviTrap purified, 81 kDa
Regarding B1, the Km in “purified protein [1]” stood at 2820 ± 240 µM; in “purified protein [2]”, 1030 ± 40 µM; in “purified protein [3]”, 760 ± 50 µM; in the series “purified protein [4]”, 100 ± 10 µM; in the series “purified protein [5]”, 2810 ± 180 µM. Besides, the Vmax worked out at 0.06 µmol/min in “purified protein [1]”; 1.64 µmol/min in “purified protein [2]”; 4.07 µmol/min in the series “purified protein [3]”; 33.8 µmol/min in the series “purified protein [4]”; 0.86 µmol/min in “purified protein [5]”. Further, the kcat came to 7.8 s⁻¹ in “purified protein [1]”; 223 s⁻¹ in “purified protein [2]”; 552 s⁻¹ in “purified protein [3]”; 9120 s⁻¹ in the series “purified protein [4]”; 117 s⁻¹ in “purified protein [5]”. Also, the kcat/Km was determined as 2700 M⁻¹ s⁻¹ in the series “purified protein [1]”; 218000 M⁻¹ s⁻¹ in “purified protein [2]”; 729000 M⁻¹ s⁻¹ in the series “purified protein [3]”; 8.66e+07 M⁻¹ s⁻¹ in the series “purified protein [4]”; 41900 M⁻¹ s⁻¹ in the series “purified protein [5]”.

Broadly, the Km is the concentration of substrate that gives half-maximal velocity. The term Vmax denotes the top rate of the reaction or transport when substrate is in excess. The kcat is the number of substrate molecules converted per active site and unit of time at saturation. As a reminder, the kcat/Km is the turnover number divided by the Michaelis constant.
